In patent publication US20150018528A1:

Legend:
[1] = biological target: TREM-1-interacting protein on PGN-stimulated neutrophils; assay: flow cytometry competition: 2 µg/ml TREM-1 tetramer as probe with 100 µg/ml TREM COMP
[2] = biological target: TREM-1-interacting protein on PGN-stimulated neutrophils; assay: flow cytometry competition: 2 µg/ml TREM-1 tetramer as probe with 100 µg/ml DCIR COMP; did not compete
[3] = biological target: TREM-1-interacting protein on PGN-stimulated neutrophils; assay: flow cytometry on PGN-stimulated neutrophils, 2 µg/ml probe, goat anti hFc/PE
[4] = biological target: human TREM-1 on BWZ.36/hTREM-1:DAP12:NFAT-LacZ reporter cells (human) (UniProt Q9NP99); assay: cell-based or functional assay
human TREM-1 on BWZ.36/hTREM-1:DAP12:NFAT-LacZ reporter cells (human), sequence (Q9NP99 21-234): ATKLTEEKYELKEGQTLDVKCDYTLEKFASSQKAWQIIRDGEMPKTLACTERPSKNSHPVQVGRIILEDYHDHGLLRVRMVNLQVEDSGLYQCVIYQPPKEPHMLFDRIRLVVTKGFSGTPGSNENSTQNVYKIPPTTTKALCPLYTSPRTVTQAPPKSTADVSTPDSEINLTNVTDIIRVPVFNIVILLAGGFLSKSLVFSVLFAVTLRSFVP

[5] = biological target: Type II 1.0 PGLYRP1 on HEK293 6E cells (human); assay: cell-based or functional assay
Type II 1.0 PGLYRP1 on HEK293 6E cells (human), sequence (chain, as listed by the source limits assumed): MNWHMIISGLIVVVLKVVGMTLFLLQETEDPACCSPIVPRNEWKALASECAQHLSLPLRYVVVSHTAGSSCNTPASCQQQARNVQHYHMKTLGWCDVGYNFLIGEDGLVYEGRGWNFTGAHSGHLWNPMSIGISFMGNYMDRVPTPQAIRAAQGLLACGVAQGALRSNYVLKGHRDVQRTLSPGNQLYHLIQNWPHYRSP

[6] = biological target: Type II PGLYRP1 on HEK293-6E cells (Example 15) (human); assay: flow cytometry on transfected HEK293-6E cells
Type II PGLYRP1 on HEK293-6E cells (Example 15) (human), sequence (chain, as listed by the source limits assumed, form in doubt): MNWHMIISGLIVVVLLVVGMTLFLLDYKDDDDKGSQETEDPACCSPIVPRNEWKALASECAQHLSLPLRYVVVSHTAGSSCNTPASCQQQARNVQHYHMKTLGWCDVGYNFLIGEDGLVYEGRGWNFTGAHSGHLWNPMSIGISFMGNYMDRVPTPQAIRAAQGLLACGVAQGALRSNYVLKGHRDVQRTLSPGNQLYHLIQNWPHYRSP

[7] = biological target: Type II PGLYRP3 + 4 on HEK293-6E cells (human); assay: flow cytometry on transfected HEK293-6E cells
Type II PGLYRP3 + 4 on HEK293-6E cells (human), sequence (Q96LB9 other isoform, or with tags, fused parts or gaps, form in doubt, chain 1 of 2): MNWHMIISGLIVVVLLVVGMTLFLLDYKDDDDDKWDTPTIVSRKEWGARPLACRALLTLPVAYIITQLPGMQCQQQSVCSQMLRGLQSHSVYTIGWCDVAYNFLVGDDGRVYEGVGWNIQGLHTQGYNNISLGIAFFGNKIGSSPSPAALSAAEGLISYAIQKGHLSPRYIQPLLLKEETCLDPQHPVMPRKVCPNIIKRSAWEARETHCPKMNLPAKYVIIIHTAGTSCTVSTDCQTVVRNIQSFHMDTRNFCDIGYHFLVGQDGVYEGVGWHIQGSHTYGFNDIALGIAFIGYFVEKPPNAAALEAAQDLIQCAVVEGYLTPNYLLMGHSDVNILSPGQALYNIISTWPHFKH
Type II PGLYRP3 + 4 on HEK293-6E cells (human), sequence (Q96LB8 other isoform, or with tags, fused parts or gaps, form in doubt, chain 2 of 2, further chain): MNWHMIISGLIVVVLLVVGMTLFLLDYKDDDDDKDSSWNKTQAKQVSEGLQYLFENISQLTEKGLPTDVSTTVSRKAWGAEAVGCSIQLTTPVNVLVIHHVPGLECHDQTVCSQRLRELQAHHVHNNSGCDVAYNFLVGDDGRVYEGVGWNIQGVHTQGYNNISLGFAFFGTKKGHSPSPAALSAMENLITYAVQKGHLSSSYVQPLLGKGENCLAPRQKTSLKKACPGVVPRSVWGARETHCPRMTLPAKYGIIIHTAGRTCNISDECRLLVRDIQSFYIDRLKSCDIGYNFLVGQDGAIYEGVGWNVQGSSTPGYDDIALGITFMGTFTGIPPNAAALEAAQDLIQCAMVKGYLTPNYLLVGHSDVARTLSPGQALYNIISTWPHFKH

[8] = biological target: Type II PGLYRP3 on HEK293-6E cells (human); assay: flow cytometry on transfected HEK293-6E cells
Type II PGLYRP3 on HEK293-6E cells (human), sequence (Q96LB9 other isoform, or with tags, fused parts or gaps, form in doubt): as the sequence (Q96LB9 other isoform, or with tags, fused parts or gaps, form in doubt, chain 1 of 2) above

[9] = biological target: Type II PGLYRP1 on HEK293-6E cells (Example 15) (human); assay: flow cytometry on transfected HEK293-6E cells, probe 5 ug/ml; grade of MFI ratio over negative control (++++ is >30)

ratio of MFI of probe staining over negative control staining [6]	ratio of MFI of probe staining over negative control staining [7]	ratio of MFI of probe staining over negative control staining [8]	Substance	other results
			TREM COMP (hTREM-1-COMP-SBP38x2-6HIS)	% positive cells (TREM-1 tetramer staining with competitor) [1]: 10%
			DCIR COMP (6HIS-SBP38x2-COMP-hDCIR)	% positive cells (TREM-1 tetramer staining with competitor) [2]: 41%
			human TREM-1-G4Sx3-TREM-1/Fc6mut (TREM-1 tetramer) (Fc fusion)	% positive cells [3]: 39%
			Type II 1.0 PGLYRP1 on HEK293 6E cells (ligand)	Fold activity of BWZ/hTREM1 reporter cells co-incubated with transfected HEK293 6E cells, without PGN, against empty vector [4]: 24 fold
			IsoAb (isotype control antibody of Example 18)	Activity of BWZ/hTREM1 reporter cells with Type II 1.0 PGLYRP1 transfectants (without antibody: 100%) [5]: 98%
< 1	< 1	< 1	huTREML1.Fc dimer (C0246) (Fc fusion)	
< 1	< 1	< 1	huTREM2.Fc dimer (C0248) (Fc fusion)	
< 1	< 1	< 1	huTREML2.Fc dimer (C0247) (Fc fusion)	
	< 1	< 1	huTREM-1.Fc dimer (C0099) (Fc fusion)	ratio of MFI of probe staining over negative control staining [9]: > 30
